From PMC8301817, “Phylogenetic Diversity of Lhr Proteins and Biochemical Activities of the Thermococcales aLhr2 DNA/RNA Helicase”

Experiments:
Assay in all cases: filter binding; 5 mM Mg2+; 25 mM Tris-HCl pH 8, 50 mM NaAc, 5 mM MgCl2, 2.5 mM beta-mercaptoethanol; protein preincubated 10 min 65 C, binding 15 min 30 C; 0.5 nM substrate (Methods); Resu
Paby-Hel308 = target: T1, Paby-Hel308 (Pyrococcus abyssi, UniProt Q9V0A9 1-715); conditions: protein: recombinant, tags: untagged
T1 sequence: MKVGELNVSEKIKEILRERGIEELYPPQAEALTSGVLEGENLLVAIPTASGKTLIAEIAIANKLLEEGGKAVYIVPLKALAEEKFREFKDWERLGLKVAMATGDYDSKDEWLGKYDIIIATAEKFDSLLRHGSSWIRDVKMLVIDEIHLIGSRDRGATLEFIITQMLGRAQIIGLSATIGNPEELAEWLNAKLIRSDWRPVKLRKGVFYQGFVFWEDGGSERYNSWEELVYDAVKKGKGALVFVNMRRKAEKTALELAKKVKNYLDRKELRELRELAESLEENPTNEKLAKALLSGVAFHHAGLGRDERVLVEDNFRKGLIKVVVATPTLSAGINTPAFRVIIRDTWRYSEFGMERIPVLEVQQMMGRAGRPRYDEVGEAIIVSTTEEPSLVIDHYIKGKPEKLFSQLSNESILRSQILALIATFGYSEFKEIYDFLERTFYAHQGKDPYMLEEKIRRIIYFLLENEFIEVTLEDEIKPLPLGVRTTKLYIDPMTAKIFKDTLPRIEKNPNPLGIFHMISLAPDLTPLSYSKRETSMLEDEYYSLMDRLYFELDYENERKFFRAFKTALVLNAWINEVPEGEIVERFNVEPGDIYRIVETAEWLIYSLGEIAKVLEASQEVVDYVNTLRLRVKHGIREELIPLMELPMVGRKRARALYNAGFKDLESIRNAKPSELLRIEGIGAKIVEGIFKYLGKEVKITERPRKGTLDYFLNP

Tbar-aLhr2 WT = target: T2, Tbar-aLhr2 WT (Thermococcus barophilus, UniProt F0LJX3 1-863); conditions: protein: recombinant, tags: untagged, chain copies: 4
T2 sequence: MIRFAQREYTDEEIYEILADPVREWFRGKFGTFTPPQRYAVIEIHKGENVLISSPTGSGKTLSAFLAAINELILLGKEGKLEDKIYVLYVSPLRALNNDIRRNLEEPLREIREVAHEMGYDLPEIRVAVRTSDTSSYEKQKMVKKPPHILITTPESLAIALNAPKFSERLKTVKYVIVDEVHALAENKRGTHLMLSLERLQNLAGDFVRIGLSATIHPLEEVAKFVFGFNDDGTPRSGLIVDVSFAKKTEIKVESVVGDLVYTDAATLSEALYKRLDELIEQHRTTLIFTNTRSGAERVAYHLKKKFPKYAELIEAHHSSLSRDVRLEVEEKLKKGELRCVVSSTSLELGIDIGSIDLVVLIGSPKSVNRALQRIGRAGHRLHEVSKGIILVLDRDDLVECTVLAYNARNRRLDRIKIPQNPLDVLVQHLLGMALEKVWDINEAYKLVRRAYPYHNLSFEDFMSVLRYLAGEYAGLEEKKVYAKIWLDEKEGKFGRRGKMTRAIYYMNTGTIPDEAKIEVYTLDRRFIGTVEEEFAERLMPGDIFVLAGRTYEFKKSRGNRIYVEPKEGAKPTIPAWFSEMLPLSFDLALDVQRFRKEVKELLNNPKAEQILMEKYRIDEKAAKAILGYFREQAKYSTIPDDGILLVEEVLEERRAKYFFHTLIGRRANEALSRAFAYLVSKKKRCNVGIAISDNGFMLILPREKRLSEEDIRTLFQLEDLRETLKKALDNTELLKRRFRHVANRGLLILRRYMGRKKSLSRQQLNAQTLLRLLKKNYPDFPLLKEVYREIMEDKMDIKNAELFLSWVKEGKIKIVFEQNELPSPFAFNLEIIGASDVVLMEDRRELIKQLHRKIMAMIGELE

Tbar-aLhr2-ΔDom4 = target: T3, Tbar-aLhr2-ΔDom4 (Thermococcus barophilus, UniProt F0LJX3 1-513); conditions: protein: recombinant; tags: untagged; label: 5'-32P; single strand
T3 sequence: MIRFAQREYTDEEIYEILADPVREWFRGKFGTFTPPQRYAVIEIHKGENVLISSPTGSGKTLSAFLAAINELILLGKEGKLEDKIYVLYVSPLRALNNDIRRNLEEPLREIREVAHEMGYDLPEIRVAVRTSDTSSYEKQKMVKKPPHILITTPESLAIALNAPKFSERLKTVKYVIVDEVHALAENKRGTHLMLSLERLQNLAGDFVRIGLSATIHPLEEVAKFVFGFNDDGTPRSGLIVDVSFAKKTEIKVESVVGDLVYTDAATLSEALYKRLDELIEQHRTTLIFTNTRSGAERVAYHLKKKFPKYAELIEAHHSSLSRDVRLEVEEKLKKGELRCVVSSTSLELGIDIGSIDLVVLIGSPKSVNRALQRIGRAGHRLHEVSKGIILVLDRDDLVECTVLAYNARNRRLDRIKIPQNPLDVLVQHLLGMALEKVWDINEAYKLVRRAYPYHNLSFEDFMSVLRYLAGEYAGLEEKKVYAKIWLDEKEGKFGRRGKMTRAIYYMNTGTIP

Tbar-aLhr2-Dom4 = target: T4, Tbar-aLhr2-Dom4 (Thermococcus barophilus, UniProt F0LJX3 514-863); conditions: protein: recombinant; tags: untagged; label: 5'-32P; single strand
T4 sequence: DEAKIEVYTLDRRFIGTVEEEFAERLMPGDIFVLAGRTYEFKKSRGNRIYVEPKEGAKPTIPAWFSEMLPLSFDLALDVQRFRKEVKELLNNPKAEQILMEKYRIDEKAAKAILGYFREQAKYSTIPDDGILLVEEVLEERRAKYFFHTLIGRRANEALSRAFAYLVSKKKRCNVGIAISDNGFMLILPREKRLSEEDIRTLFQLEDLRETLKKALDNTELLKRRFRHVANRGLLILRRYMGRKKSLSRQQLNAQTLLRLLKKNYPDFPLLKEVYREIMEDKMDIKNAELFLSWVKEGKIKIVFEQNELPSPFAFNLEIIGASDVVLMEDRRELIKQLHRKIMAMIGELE

[1] = label: 5'-32P on DNA31, 3' overhang 28 nt

B1: 3'DNA59:DNA31 (dsDNA)
DNA 1: GACGCTGCCGAATTCTACCAGTGCCTTGCTAGGACATCTTTGCCCACCTGCAGGTTCAC
DNA 2: TAGCAAGGCACTGGTAGAATTCGGCAGCGTC
For B1, which Kd (Paby-Hel308; [1]) is on record?
Its Kd is 23 ± 1 nM.

What about the Kd (Tbar-aLhr2 WT; [1]) of the same binder?
The Kd was 41 ± 2 nM.

What does the source list for ACGCUGCCGAAUUCUGGCUUGCUAGG (ssRNA) [RNA26]?
Kd (Tbar-aLhr2 WT; label: 5'-32P, single strand): 80 ± 2 nM; Kd (Tbar-aLhr2-ΔDom4): 150 ± 1 nM; Kd (Tbar-aLhr2-Dom4): 241 ± 17 nM

ATCGATAGTCTCTAGACAGCATGTCCTAGCAAGCCAGAATTCGGCAGCGT (ssDNA) [DNA50] was tested. Which Kd (Paby-Hel308; label: 5'-32P, single strand) did it give?
The Kd was 32 ± 2 nM.

And the Kd (Tbar-aLhr2 WT; label: 5'-32P, single strand)?
Its Kd is 39 ± 1 nM.

And the Kd (Tbar-aLhr2-ΔDom4)?
The Kd was 54 ± 1 nM.

And the Kd (Tbar-aLhr2-Dom4)?
The Kd was 162 ± 5 nM.

GGACATGCTGTCTAGAGACTATCGAT (ssDNA) [DNA26] was tested. Which Kd (Tbar-aLhr2 WT; label: 5'-32P, single strand) did it give?
The Kd was 58 ± 2 nM.

What about the Kd (Tbar-aLhr2-ΔDom4) of the same binder?
Its Kd is 211 ± 9 nM.

What about the Kd (Tbar-aLhr2-Dom4) of the same binder?
Its Kd is 277 ± 16 nM.

How did the Kd (Paby-Hel308; label: 5'-32P, single strand) turn out when AUCGAUAGUCUCUAGACAGCAUGUCCUAGCAAGCCAGAAUUCGGCAGCGU (ssRNA) [RNA50] was run?
The Kd was 38 ± 1 nM.

What about the Kd (Tbar-aLhr2 WT; label: 5'-32P, single strand) of the same binder?
The Kd was 41 ± 1 nM.

What about the Kd (Tbar-aLhr2-ΔDom4) of the same binder?
Its Kd is 69 ± 1 nM.

And the Kd (Tbar-aLhr2-Dom4)?
The Kd was 161 ± 5 nM.

B2: 3'RNA50:RNA26 (dsRNA)
RNA 1: AUCGAUAGUCUCUAGACAGCAUGUCCUAGCAAGCCAGAAUUCGGCAGCGU
RNA 2: GGACAUGCUGUCUAGAGACUAUCGAU
Which Kd (Tbar-aLhr2 WT; label: 5'-32P on RNA26, 3' overhang 24 nt) does the source give for B2 here?
The Kd was 39 ± 2 nM.
